B1: PepA from P. aeruginosa strain PA14 (PaPepA), uncleaved His6-tagged protein used for crystallography (enzyme, Pseudomonas aeruginosa strain PA14)
chain: MEFLVKSVRPETLKTATLVLAVGEGRKLGASAKAVDDATGGAISAVLKRGDLAGKVGQTLLLQSLPNLKAERVLLVGAGKERELGDRQYRKLASAVLSTLKGLAGADAALALGDLAVKGRGAHAKARLLVETLADGLYVFDRYKSQKAEPLKLKKLTLLADKADSAAVEQGSKEAQAIANGMALTRDLGNLPPNVCHPTFLGEQAKGLAKEFKSLKVEVLDEKKLRELGMGSFLAVAQGSDQPPRLIILQYNGAKKDQAPHVLVGKGITFDTGGISLKPGLGMDEMKFDMCGAASVFGTFRAVLELQLPINLVGLLACAENMPSGGATRPGDIVTTMSGQTVEILNTDAEGRLVLCDALTYAERFKPQSVIDIATLTGACIVALGSNTSGLMGNNEALVRQLLKAGEFADDRAWQLPLFDEYQEQLDSPFADIANIGGPKAGTITAGCFLSRFAKKYHWAHLDIAGTAWISGGKDKGATGRPVPLLTQYLLERAK
notes: Leucine aminopeptidase PepA, Pseudomonas aeruginosa strain PA14, PA14_14470, UniProt Q02RY8; also called leucine aminopeptidase from Pseudomonas aeruginosa; uncleaved PaPepA; source: E. coli BL21(DE3), purified (HisTrap FF nickel column, dialysed; not TEV-cleaved); not shown: His6 (followed by a linker and a TEV protease cleavage site), N-terminal, kept
B2: PepA from P. aeruginosa strain PA14 (PaPepA), protein used for dynamic light scattering (enzyme, Pseudomonas aeruginosa strain PA14)
chain: B1 chain
notes: Leucine aminopeptidase PepA, Pseudomonas aeruginosa strain PA14, PA14_14470, UniProt Q02RY8; probably the cleaved one; also called leucine aminopeptidase from Pseudomonas aeruginosa; source: E. coli BL21(DE3), purified (HisTrap FF nickel column)

Legend:
[1] = biological target: the molecule itself; test: crystal structure; uncleaved PaPepA, sitting drop, 20 °C, PEG 3350 and ammonium nitrate; three crystal forms: apo, with MnCl2, with bestatin and MnCl2
[2] = biological target: the molecule itself; test: dynamic light scattering; PaPepA in solution; conditions not shown (Figure S14)

| Protein | stoichiometry N [1] | stoichiometry N [2] |
| --- | --- | --- |
| B1 | 6 | – |
| B2 | – | 6 |

From publication PMC10666288, “Unveiling the Catalytic Mechanism of a Processive Metalloaminopeptidase” (Biochemistry, 2023)
